What all share (test): EMSA
For data set [1], the system named is Orc1 BAH Lid swap (Saccharomyces cerevisiae). Conditions: 10 mM Tris pH 7.5, 50 mM NaCl, 2.5% glycerol, 1 mM DTT, room temperature 30 min, 25 or 50 nM nucleosome, native PAGE 0.2x TBE.
Data set [2] relates to T1, Orc1 BAH WT (Saccharomyces cerevisiae).
T1 sequence: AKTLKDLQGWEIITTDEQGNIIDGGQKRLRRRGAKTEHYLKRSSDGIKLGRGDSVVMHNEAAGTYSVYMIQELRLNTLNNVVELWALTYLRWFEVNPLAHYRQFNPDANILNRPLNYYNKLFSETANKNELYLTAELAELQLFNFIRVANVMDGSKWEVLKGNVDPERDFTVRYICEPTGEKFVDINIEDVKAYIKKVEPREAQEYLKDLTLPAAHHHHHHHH
The following applies: apparent Kd, 10 mM Tris pH 7.5, 50 mM NaCl, 2.5% glycerol, 1 mM DTT, room temperature 30 min, 25 or 50 nM nucleosome, native PAGE 0.2x TBE.

For data set [3], the system named is Sir3 BAH Lid D205Q (Saccharomyces cerevisiae). Conditions: apparent Kd, 10 mM Tris pH 7.5, 50 mM NaCl, 2.5% glycerol, 1 mM DTT, room temperature 30 min, 25 or 50 nM nucleosome, native PAGE 0.2x TBE.
In data set [4] the test system is Sir3 BAH D205N (Saccharomyces cerevisiae). The following applies: apparent Kd, 10 mM Tris pH 7.5, 50 mM NaCl, 2.5% glycerol, 1 mM DTT, room temperature 30 min, 25 or 50 nM nucleosome, native PAGE 0.2x TBE.
In data set [5] the test system is Sir3 BAH D205Q (Saccharomyces cerevisiae). Conditions: apparent Kd, 10 mM Tris pH 7.5, 50 mM NaCl, 2.5% glycerol, 1 mM DTT, room temperature 30 min, 25 or 50 nM nucleosome, native PAGE 0.2x TBE.
Data set [6] concerns Orc1 BAH Q205D (Saccharomyces cerevisiae). Conditions: apparent Kd; 10 mM Tris pH 7.5, 50 mM NaCl, 2.5% glycerol, 1 mM DTT, room temperature 30 min; 25 or 50 nM nucleosome; native PAGE 0.2x TBE.
Data set [7] deals with Orc1 BAH E95K (Saccharomyces cerevisiae). The following applies: apparent Kd; 10 mM Tris pH 7.5, 50 mM NaCl, 2.5% glycerol, 1 mM DTT, room temperature 30 min; 25 or 50 nM nucleosome; native PAGE 0.2x TBE.
For data set [8], the system named is Orc1 BAH L79I (Saccharomyces cerevisiae). The following applies: 10 mM Tris pH 7.5, 50 mM NaCl, 2.5% glycerol, 1 mM DTT, room temperature 30 min; 25 or 50 nM nucleosome; native PAGE 0.2x TBE.
The test system of data set [9] is Orc1 BAH R202E (Saccharomyces cerevisiae). The following applies: 10 mM Tris pH 7.5, 50 mM NaCl, 2.5% glycerol, 1 mM DTT, room temperature 30 min; 25 or 50 nM nucleosome; native PAGE 0.2x TBE.
Data set [10] relates to Orc1 BAH A2P (Saccharomyces cerevisiae). The following applies: 10 mM Tris pH 7.5, 50 mM NaCl, 2.5% glycerol, 1 mM DTT, room temperature 30 min; 25 or 50 nM nucleosome; native PAGE 0.2x TBE.
[11] abbreviates: histone H4 K16ac (genetically encoded), DNA unmodified.

For the substance H4K16Q nucleosome (147 bp 601), the Kd in data set [1] (histone H4 K16Q (acetyl mimic), DNA unmodified) was 1.4 µM.
As to H4K16ac nucleosome (147 bp 601), the Kd in data set [2] (setting [11]) stood at 1.5 µM; in [3] (setting [11]), 1.7 µM; in data set [4] (setting [11]), 0.81 µM; in data set [5] (setting [11]) it was 1.2 µM; in data set [1] (apparent Kd, histone H4 K16ac (genetically encoded), DNA unmodified), 3.7 µM.
Regarding WT nucleosome (147 bp 601, unmodified), the Kd was 5.1 µM in data set [6]; 4.4 µM in data set [7]; 1.3 µM in [2]; 1.1 µM in [2] (reference set for mutants); 0.4 µM in data set [8]; 1 µM in data set [3]. Moreover, the Kd in data set [4] came to 0.22 µM; in data set [5], 0.3 µM; in [1] it was 0.7 µM; in [1] (apparent Kd, comparison set with H4K16ac), 0.6 µM; in data set [10], 1.9 µM. Moreover, the binding signal (fold decrease in affinity vs Orc1 WT) in [9] is 4.9.

Source of the values: article PMC6602975.
